Laboratory results taken from patent publication US6284729A, “Methods and reagents for regulating obesity” (Children's Medical Center Corporation, priority 1998, dated 2001).
Each block holds one molecule with its values, some of them ahead of it.

Tests used:
[1] = tested on: melanocortin-4 receptor; experiment: MC4-R adenylyl cyclase assay (conversion of ATP to cAMP) in membranes from 293 cells transfected with the melanocortin-4 receptor, with ndp-MSH; type: biochemical; details: for potentiation of MC4-R inhibition by AGRP (formation of cAMP from ATP): membranes preincubated with substance plus AGRP, FIGS. 1a and 1b
Description: Based on the interaction of AGRP and syndecan-1, the putative interaction between agouti/AGRP and syndecaniheparan sulfate in a functional assay was tested. Membranes from 293 cells transfected with the melanocortin-4 receptor were preincubated with buffer or as indicated with AGRP, heparan sulfate, syndecan-1 ectodomain, heparan sulfate plus AGRP, and syndecan-1 ectodomain plus AGRP. Samples were then mixed with or without the indicated concentration of ndp-{character pullout}MSH and conversion of ATP to cAMP measured in the assay.

[2] = target: T1, syndecan-1 ectodomain (Mus musculus, UniProt P18828); experiment: Binding of radioactive syndecan-1 ectodomain to neuropeptides immobilized on nitrocellulose membrane (autoradiography); details: peptides immobilized on nitrocellulose, UV cross-linked
T1 sequence (P18828 23-255 limits assumed): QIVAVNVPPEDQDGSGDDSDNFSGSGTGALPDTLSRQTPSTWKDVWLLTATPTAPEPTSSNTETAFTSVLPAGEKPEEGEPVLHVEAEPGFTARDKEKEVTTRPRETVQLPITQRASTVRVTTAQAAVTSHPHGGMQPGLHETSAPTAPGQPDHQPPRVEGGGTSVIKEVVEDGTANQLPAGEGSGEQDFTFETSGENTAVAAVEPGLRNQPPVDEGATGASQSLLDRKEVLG
Description: Binding of syndecan-1 ectodomain to neuropeptides involved in body weight regulation was tested. Varying concentrations of the peptides were immobilized on a nitrocellulose membrane (for example, 1000 nmol) and fixed by UV cross-linking. The membrane was incubated with radioactive syndecan-1 ectodomain to allow binding and then washed and analyzed by autoradiography.

[3] = tested on: Mc3r; details: recombinant protein; cited from earlier work
[4] = tested on: Mc4r; details: recombinant protein; cited from earlier work

Molecule: heparan sulfate [reference compound]
potency of AGRP at inhibiting MC4-R activation in presence of the substance ([1]; 1 μg/ml heparan sulfate): 10 nM AGRP is as potent as 100 nM AGRP
potentiation of MC4-R inhibition by AGRP (formation of cAMP from ATP) [1]: potentiates melanocortin-4R (MC4-R) inhibition by AGRP

Molecule: NC(=O)CC[C@@H]1NC(=O)[C@H](Cc2ccccc2)NC(=O)[C@H](Cc2ccc(O)cc2)NC(=O)[C@@H](N)CSSC[C@@H](C(=O)N2CCC[C@H]2C(=O)N[C@@H](CCCN=C(N)N)C(=O)NCC(N)=O)NC(=O)[C@H](CC(N)=O)NC1=O [vasopressin, reference compound]
interaction with syndecan-1 (binding of radioactive syndecan-1 ectodomain to immobilized peptide) [2]: interact with syndecan-1

B1: syndecan-1 ectodomain: soluble extracellular domain of syndecan-1, a transmembrane heparan sulfate proteoglycan (protein, UniProt P18827 23-254, looked up)
extracellular domain: QIVATNLPPEDQDGSGDDSDNFSGSGAGALQDITLSQQTPSTWKDTQLLTAIPTSPEPTGLEATAASTSTLPAGEGPKEGEAVVLPEVEPGLTAREQEATPRPRETTQLPTTHLASTTTATTAQEPATSHPHRDMQPGHHETSTPAGPSQADLHTPHTEDGGPSATERAAEDGASSQLPAAEGSGEQDFTFETSGENTAVVAVEPDRRNQSPVDQGATGASQGLLDRKEVLG
modifications: extracellular domain
notes: soluble extracellular domain of syndecan-1, a transmembrane heparan sulfate proteoglycan
potency of AGRP at inhibiting MC4-R activation in presence of the substance ([1]; 1 ng/ml syndecan-1 ectodomain): 10 nM AGRP is as potent as 100 nM AGRP
potentiation of the action of agouti on the MC4-R ([1]; biochemical assay, agouti instead of AGRP): potentiates the action of agouti on the MC4-R
concentration dependence of potentiation of AGRP's action ([1]; low versus higher concentrations of syndecan-1 ectodomain): potentiation is less pronounced at higher concentrations
potentiation of MC4-R inhibition by AGRP (formation of cAMP from ATP) [1]: potentiates melanocortin-4R (MC4-R) inhibition by AGRP

Further lines, with some results ahead:

interaction with syndecan-1 (binding of radioactive syndecan-1 ectodomain to immobilized peptide) [2]: interact with syndecan-1
Molecule: FGF-2: fibroblast growth factor-2, heparin-binding growth factor

interaction with syndecan-1 (binding of radioactive syndecan-1 ectodomain to immobilized peptide) [2]: interact with syndecan-1
Molecule: AGRP: Agouti-related protein, 132 aa hypothalamic analog of agouti; inhibitor of MC3-R and MC4-R (SSRRCVRLHESCLGQQVPCCDPCATCYCRFFNAFCYCRKLGTAMNPCSRT; UniProt O00253 83-132, looked up)
antagonism of Mc3r [3]: potent, selective antagonist
antagonism of Mc4r [4]: potent, selective antagonist

interaction with syndecan-1 (binding of radioactive syndecan-1 ectodomain to immobilized peptide) [2]: interact with syndecan-1
B2: agouti: 131 aa paracrine signaling molecule; switches hair follicle melanocytes from black to yellow pigment (protein, UniProt Q03288 23-131, looked up)
Agouti-signaling protein: HLALEETLGDDRSLRSNSSMNSLDFSSVSIVALNKKSKKISRKEAEKRKRSSKKKASMKKVARPPPPSPCVATRDSCKPPAPACCDPCASCQCRFFGSACTCRVLNPNC
